Here are results for 1 substance from PMC3164694.

The test deals with gelatin layer (gelatin coated glass coverslips). The test can be described thus: not stated; unpublished data (Collier and Goldberg); affinity for gelatin.

Turning to MMP-9 pro-enzyme homo-dimer (complex), the fold higher affinity of the dimer for gelatin was found to be 10 fold.
